Data taken from patent publication US20260069707A1, “COMBINATION THERAPY WITH ANTIBODY-DRUG CONJUGATES AND HYALURONIDASES” (HALOZYME, INC., priority 2024, published 2026).

Columns and labels:
[1] = Calculation of drug to antibody ratio (DAR); details: for ADC:free Ab / free Ab:ADC: after adjustment factor
Text: The Drug-to-Antibody Ratio (DAR) is a critical parameter in antibody drug conjugate development, representing the average number of drug molecules attached to each antibody molecule.

[2] = Post-injection bleb volume, area, height - caliper measurement; assay type: in vivo, Yucatan miniature pig (Sus scrofa domestica); details: Example 8: dupilumab 2 mL; dupilumab + rHuPH20 5 mL; T0
Description: (§1) The needle was inserted vertically into the marked injection site and the HVAI held in place by hand. Target needle insertion depth was ˜10 mm. Injections were timed using a stopwatch. Upon completion of the injection the needle was removed and the HVAI device discarded. Test solution back-leakage was then absorbed to a tared eye-spear for 30 seconds on the injection site and the weight of the eye spear was measured using an analytical balance. The margins of the injection site bleb were marked with a permanent marker and measured for length, width, and height using a digital caliper and recorded then photographed with the standard and 3D cameras. Caliper measurements and photographs were taken immediately post-injection. Local injection sites were qualitatively assessed and graded daily for erythema severity, swelling size appearance, and firmness, using a scoring system described in Table 4 Table 5, and Table 6, respectively.
Assessment of Local Swelling Volume and Area Using Caliper Measurement and 3D Imaging. Volume and area of post-injection swelling were measured using both caliper measurement and 3D camera image analysis. For caliper measurements a digital caliper was utilized to measure length, width and height of the bleb that formed post-injection. The length and width are defined as the edge to edge measurements of the bleb (i.e., diameter) along their longest axes. These values were manually recorded, and the volume determined using the formula for half of an ellipsoid Vol=(⅔)*π*A*B*C where A=Length/2, B=Width/2 and C=Height.
Assessment of Post-Injection Bleb Volume, Area and Height (Caliper Measurements). The local injection site swelling (bleb) was marked and measured using a digital caliper.

[3] = Qualitative assessment of local injection sites (erythema, swelling size, induration); assay type: in vivo, Yucatan miniature pig (Sus scrofa domestica); details: Example 8: dupilumab 2 mL; dupilumab + rHuPH20 5 mL; T0, three evaluators
Description: as §1
Approximately, 24 hours post-dosing of the first injection, each animal was re-anesthetized, and injection sites assessed for erythema, induration and swelling, then photographed and returned to its cage.

[4] = Calculation of free payload:ADC following ADC administration
Description: Antibody drug conjugates with thiol-malimide conjugation undergo deconjugation following administration. To assess this deconjugation, free payload: ADC was calculated rather than reverse, because for completely stable antibody, ADC:free payload would be infinity.
Antibody drug conjugates with thiol-malimide conjugation undergo deconjugation following administration. To assess this deconjugation, free payload: ADC was calculated for specific antibody drug conjugates including Trastuzumab, Polatuzumab, Enfortumab and Tisotumab.

[5] = Concentration (weight/mL) basis, unconjugated MMAE/antibody conjugated MMAE over 21 days
[6] = Molar basis, Using molecular weight for the entire linker
[7] = Molar basis, different tumor (line after the one using molecular weight for the entire linker)
[8] = Molar basis, unconjugated MMAE/antibody conjugated MMAE over 21 days
[9] = Concentration (weight/mL) basis
[10] = Molar basis, second line, Unconjugated MMAE/ADC over 21 days
[11] = Concentration (weight/mL) basis, Unconjugated MMAE/ADC over 28 days
[12] = Molar basis, Unconjugated MMAE/ADC over 28 days
[13] = Molar basis, Using molecular weight for the entire linker, MMAE/ADC over 28 days

mirvetuximab soravtansine
% DAR remaining (which may be ~ADC/ total Ab) ([1]; Day 1): 88.4%
% DAR remaining after adjustment factor to allow for variability (line without head) ([1]; Day 1): 70.7%
ADC:free Ab ([1]; Day 1): 241.3%
free Ab:ADC ([1]; Day 1): 41.4%
% DAR remaining (which may be ~ADC/ total Ab) ([1]; Day 7): 32.6%
% DAR remaining after adjustment factor to allow for variability (line without head) ([1]; Day 7): 26.0%
ADC:free Ab ([1]; Day 7): 35.2%
free Ab:ADC ([1]; Day 7): 283.9%

dupilumab
Post-injection bleb Area, caliper (Mean ± SEM) [2]: 13.1 ± 1.4
Post-injection bleb Volume, caliper (Mean ± SEM) [2]: 7.0 ± 1.8
Induration Score (Mean ± SEM) [3]: 2.4 ± 0.4
Swelling Score (Mean ± SEM) [3]: 1.4 ± 0.2

Polatuzumab vedotin (Polivy)
free payload: ADC, AUC [4, 5]: 1.52%
free payload: ADC, Cmax [4, 5]: 0.46%
free payload: ADC, AUC [4, 6]: 173.1%
free payload: ADC, Cmax [4, 6]: 52.8%
free payload: ADC, AUC ([4]; Molar basis, different tumor): 257.1%
free payload: ADC, Cmax ([4]; Molar basis, different tumor): 87.2%
free payload: ADC, AUC [4, 7]: 140.2%
free payload: ADC, Cmax [4, 7]: 47.5%
free payload: ADC, AUC [4, 8]: 317.5%
free payload: ADC, Cmax [4, 8]: 96.9%

Tisotumab vedotin (Tivdak)
free payload: ADC, AUC [4, 9]: 0.09%
free payload: ADC, Cmax [4, 9]: 0.01%
free payload: ADC, AUC ([4]; Molar basis): 18.5%
free payload: ADC, Cmax ([4]; Molar basis): 3.1%
free payload: ADC, AUC [4, 10]: 10.1%
free payload: ADC, Cmax [4, 10]: 1.7%

Enfortumab vedotin (Padcev)
free payload: ADC, AUC [4, 11]: 0.08%
free payload: ADC, Cmax [4, 11]: 0.02%
free payload: ADC, AUC [4, 12]: 16.4%
free payload: ADC, Cmax [4, 12]: 4.2%
free payload: ADC, AUC [4, 13]: 8.9%
free payload: ADC, Cmax [4, 13]: 2.3%
